Legend:
huFolR1-Fc = test: SPR epitope binning; type: binding, human; settings: label = immobilized binder; 500 nM; note: key: + means binding; − means no binding; +/− means weak binding
Experimental: 500 nM huFolR1-Fc was then captured for 60 s, followed by 500 nM of the different binders for 30 s. The surface was regenerated with two injections of 10 mM glycine pH 2 for 30 s each.

[1] = system: cynomolgus Folate Receptor 1 (FolR1-Fc); settings: bivalent binding (avidity), ligand cyFolR1
Experimental: (§1) Binding of FolR1 binders as IgG or in the T-cell bispecific format to different recombinant folate receptors (human FolR1, 2 and 3, murine FolR1 and cynomolgus FolR1; all as Fc fusions) was assessed by surface plasmon resonance (SPR). All SPR experiments were performed on a Biacore T200 at 25° C. with HBS-EP as running buffer (0.01 M HEPES pH 7.4, 0.15 M NaCl, 3 mM EDTA, 0.005% Surfactant P20, Biacore, Freiburg/Germany).
The avidity of the interaction between the anti-FolR1 IgGs or T cell bispecifics and the recombinant folate receptors was determined as described below (Table 9). Recombinant biotinylated monomeric Fc fusions of human, cynomolgus and murine Folate Receptor 1 (FolR1-Fc) were directly coupled on a SA chip using the standard coupling instruction (Biacore, Freiburg/Germany). The immobilization level was about 300-400 RU. The anti-FolR1 IgGs or T cell bispecifics were passed at a concentration range from 2.1 to 500 nM with a flow of 30 μL/minutes through the flow cells over 180 seconds. The dissociation was monitored for 600 seconds. […] The binding curves resulting from the bivalent binding of the IgGs or T cell bispecifics were approximated to a 1:1 Langmuir binding and fitted with that model (which is not correct, but gives an idea of the avidity). The apparent avidity constants for the interactions were derived from the rate constants of the fitting using the Bia Evaluation software (GE Healthcare).

[2] = system: cyno Folate Receptor 1 Fc fusion; settings: monovalent binding (affinity), analyte cyFolR1
Experimental: as §1
(§2) For affinity measurement, direct coupling of around 6000-7000 resonance units (RU) of the anti-human Fab specific antibody (Fab capture kit, GE Healthcare) was performed on a CM5 chip at pH 5.0 using the standard amine coupling kit (GE Healthcare). Anti-FolR1 IgGs or T cell bispecifics were captured at 20 nM with a flow rate of 10 μl/min for 20 or 40 sec, the reference flow cell was left without capture. Dilution series (6.17 to 500 nM or 12.35 to 3000 nM) of human or cyno Folate Receptor 1 Fc fusion were passed on all flow cells at 30 μl/min for 120 or 240 sec to record the association phase. The dissociation phase was monitored for 240 s and triggered by switching from the sample solution to HBS-EP. The chip surface was regenerated after every cycle using a double injection of 60 sec 10 mM Glycine-HCl pH 2.1 or pH 1.5. Bulk refractive index differences were corrected for by subtracting the response obtained on the reference flow cell 1. The affinity constants for the interactions were derived from the rate constants by fitting to a 1:1 Langmuir binding using the Bia Evaluation software (GE Healthcare).

[3] = target: human Folate Receptor 1 Fc fusion (Homo sapiens, UniProt P15328); settings: monovalent binding (affinity), analyte huFolR1
Experimental: as §1, §2

murine FolR1 = murine FolR1 (Mus musculus, UniProt P35846); settings: IgG injected for 60 seconds at 500 nM
Experimental: as §1
(§3) First the anti-FolR1 IgGs were analyzed by single injections (Table 1) to characterize their crossreactivity (to human, murine and cyno FolR1) and specificity (to human FolR1, human FolR2, human FolR3). Recombinant biotinylated monomeric Fc fusions of human, cynomolgus and murine Folate Receptor 1 (FolR1-Fc) or human Folate Receptor 2 and 3 (FolR2-Fc, FolR3-Fc) were directly coupled on a SA chip using the standard coupling instruction (Biacore, Freiburg/Germany). The immobilization level was about 300-400 RU. The IgGs were injected for 60 seconds at a concentration of 500 nM.

human FolR3 = human FolR3 (Homo sapiens, UniProt P41439); settings: IgG injected for 60 seconds at 500 nM
Experimental: as §1, §3

human FolR1 = human FolR1 (Homo sapiens, UniProt P15328); settings: IgG injected for 60 seconds at 500 nM
Experimental: as §1, §3

cynomolgus FolR1 = settings: IgG injected for 60 seconds at 500 nM
Experimental: as §1, §3

human FolR2 = human FolR2 (Homo sapiens, UniProt P14207); settings: IgG injected for 60 seconds at 500 nM
Experimental: as §1, §3

[4] = target: T1, human Folate Receptor 1 (FolR1-Fc) (Homo sapiens, UniProt P15328); test: SPR avidity to Folate Receptor 1 (bivalent binding); settings: bivalent binding (avidity), ligand huFolR1
T1 construct: the extracellular domain of the antigen linked to the hinge region of Fc-knob; made in house; host or cells: HEK293 EBNA
Description: The immobilization level was about 300-400 RU. […] The dissociation was monitored for 600 seconds.

B1: Mov19: reference molecule, the human FolR1 binder Mov19 (IgG) (antibody, V domains shown)
VH: QVQLQQSGAELVKPGASVKISCKASGYSFTGYFMNWVKQSHGKSLEWIGRIHPYDGDTFYNQNFKDKATLTVDKSSNTAHMELLSLTSEDFAVYYCTRYDGSRAMDYWGQGTTVTVSS
VL: DIELTQSPASLAVSLGQRAIISCKASQSVSFAGTSLMHWYHQKPGQQPKLLIYRASNLEAGVPTRFSGSGSKTDFTLNIHPVEEEDAATYYCQQSREYPYTFGGGTKLEIK
For B1, the “binding of analyte in solution 9D11 TCB to huFolR1 captured on the immobilized binder” value (huFolR1-Fc) was “+/−”, the “binding of analyte in solution 16D5 TCB to huFolR1 captured on the immobilized binder” value (huFolR1-Fc) was “+” and the “binding of analyte in solution 21A5 TCB to huFolR1 captured on the immobilized binder” value (huFolR1-Fc) was “+”. The “binding of analyte in solution 36F2 IgG to huFolR1 captured on the immobilized binder” value (huFolR1-Fc) was “−”, the “binding of analyte in solution Farletuzumab to huFolR1 captured on the immobilized binder” value (huFolR1-Fc) was “−” and the “binding of analyte in solution Mov19 IgG to huFolR1 captured on the immobilized binder” value (huFolR1-Fc) was “−”. It also gave a ka [1] of 1.29e+06 M⁻¹ s⁻¹, a kd [1] of 0.000139 s⁻¹ and a ka [2] of 297000 M⁻¹ s⁻¹. The kd [2] was 0.000193 s⁻¹, the ka [3] was 289000 M⁻¹ s⁻¹ and the kd [3] was 0.000159 s⁻¹. For the same molecule, the “Binding to muFolR1” value (murine FolR1) was “−”, the “Binding to huFolR3” value (human FolR3) was “−” and the “Binding to huFolR1” value (human FolR1) was “+”. The “Binding to cyFolR1” value (cynomolgus FolR1) was “+”, the “Binding to huFolR2” value (human FolR2) was “−” and the ka [4] was 861000 M⁻¹ s⁻¹. The kd [4] was 0.000121 s⁻¹ and the binding to erythrocytes (erythrocytes) was “could not observe any specific binding”.
